Test results published in the supplement of paper PMC10126150.
± gives the standard deviation of the averaged measurements.

test system: ATP; test: switch fluorescence ratio, 500 uM ATP over buffer (Cy3 cluster intensity, sum of 5 cycles each) (fold (ratio)); higher = stronger signal-on switching upon ATP binding; sequences stand for … in TCGTCGGCAGCGTCAGATGTGTATAAGAGACAGTTTTTTTTTTTTTTTTTTTTTTTTT…TC; conditions: aptamer strand: ATP DNA aptamer (quencher-CACCTGGGGGAGTATTGCGGAGGAAGG + anchor), 100 nM annealed; ATP concentration: 500 uM
Method in brief: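 Switching-strand clusters labelled with Cy3 on a modified Illumina MiSeq flow-cell were annealed to 100 nM quencher-labelled ATP aptamer, imaged in selection buffer, and re-imaged after 15 min with 500 uM ATP at 22 °C. This was done over five cycles with NaOH stripping and re-annealing in between. The fluorescence ratio is summed target-cycle over summed buffer-cycle Cy3 intensity per cluster, averaged per switch-domain sequence, excluding clusters outside 100-1000 RFU.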
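Note: ATP exposure 15 min at 22 °C before imaging.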

Point of comparison: AACATGGGTT, switch fluorescence ratio 1.01 ± 0.031. Against it:
- AACAGAGTAG — within error, 0.976 ± 0.028
- AACAGATGGA — within error, 1.16 ± 0.3
- AACAGGCGGG — within error, 0.993 ± 0.027
- AACAGGGAAG — within error, 1.02 ± 0.012
- AACAGGGGGA — within error, 1.09 ± 0.14
- AACAGGGTGG — within error, 1.016 ± 0.0021
- AACAGGGTTT — the same, 1.01 ± 0.075
- AACAGTATTT — within error, 1.04 ± 0.011
- AACAGTGAGC — within error, 1.039 ± 0.0056
- AACAGTGTTT — within error, 0.971 ± 0.065
- AACATACAGG — higher, 1.28 ± 0.019
- AACATAGGTC — within error, 1.06 ± 0.04
- AACATAGTCA — the same, 1.006 ± 0.0024
- AACATATTGG — the same, 1.01 ± 0.073
- AACATGTCCT — within error, 1.04 ± 0.031
- AACATTCGTT — within error, 1.034 ± 0.0042
- AACATTGGTC — the same, 1.01 ± 0.017
- AACCACAGGA — higher, 1.057 ± 0.0019
- AACCACTTTA — within error, 1.06 ± 0.021
- AACCAGAAGG — the same, 1.01 ± 0.035
- AACCAGTGGC — within error, 1.06 ± 0.079
- AACCAGTTTT — within error, 0.98 ± 0.027
- AACCATCGGG — within error, 0.976 ± 0.013
- AACCCATTTG — within error, 1.29 ± 0.48
- AACCCGTTTC — within error, 1.09 ± 0.07
- AACCGAACGA — higher, 2.09 ± 0.072
- AACCGCGCTT — higher, 1.18 ± 0.083
- AACCGGCTTA — within error, 0.999 ± 0.026
- AACCGGGGAC — higher, 1.31 ± 0.23
- AACCGTTTTT — within error, 1.05 ± 0.063
- AACCTATTAT — within error, 0.998 ± 0.019
- AACCTCTCAT — higher, 1.08 ± 0.011
- AACCTGGGGA — within error, 1.12 ± 0.19
- AACCTGGGGC — higher, 1.15 ± 0.044
- AACCTGGGGT — within error, 1.02 ± 0.0073
- AACCTTATCA — higher, 1.07 ± 0.02
- AACCTTTTGG — within error, 1.03 ± 0.048
- AACGAGAGGA — within error, 0.986 ± 0.012
- AACGCGACAT — higher, 1.29 ± 0.022
- AACGCGGGGG — within error, 0.983 ± 0.044
- AACGCGGTGG — lower, 0.941 ± 0.017
- AACGGCCGTG — within error, 1.02 ± 0.046
- AACGGCGGTG — the same, 1.01 ± 0.019
- AACGGGCCAG — within error, 0.997 ± 0.028
- AACGGTGCGG — the same, 1.01 ± 0.026
- AACGGTGGTC — within error, 1.03 ± 0.075
- AACGTAAATA — higher, 1.11 ± 0.053
- AACGTAGATA — within error, 1.042 ± 0.0098
- AACGTAGGTA — within error, 1.038 ± 0.0051
- AACGTATGGG — within error, 1.03 ± 0.039
- AACGTATGTT — within error, 0.9895 ± 0.0028
- AACGTCTGGA — lower, 0.9725 ± 0.0037
- AACGTGGCGA — within error, 1.03 ± 0.047
- AACGTGTGGA — within error, 0.9979 ± 0.0093
- AACGTTAATT — within error, 1.025 ± 0.0081
- AACGTTGCTT — the same, 1.01 ± 0.013
- AACGTTGGAG — within error, 1.02 ± 0.019
- AACTAAATCT — within error, 1.023 ± 0.00042
- AACTAACGTG — higher, 1.3 ± 0.056
- AACTACCAGA — higher, 1.062 ± 0.0045
- AACTAGCCGG — within error, 0.961 ± 0.025
- AACTAGGCGC — within error, 0.9875 ± 0.0065
- AACTAGGGCT — within error, 0.976 ± 0.028
- AACTATTCGG — within error, 0.9788 ± 0.0054
- AACTCCAGGG — higher, 1.35 ± 0.2
- AACTCCTAAG — within error, 1.03 ± 0.021
- AACTCGGGGT — within error, 1.02 ± 0.05
- AACTCTGTTA — within error, 0.982 ± 0.03
- AACTGCAATT — within error, 2 ± 1.1
- AACTGGATAT — within error, 1.04 ± 0.017
- AACTGGGGAA — within error, 0.973 ± 0.016
- AACTGGGGAT — within error, 0.9809 ± 0.0018
- AACTGGGGGA — within error, 1.06 ± 0.054
- AACTGGGGTA — within error, 0.977 ± 0.01
- AACTGGGGTT — within error, 0.9868 ± 0.0035
- AACTGTAGAC — higher, 1.121 ± 0.0022
- AACTGTGGAT — within error, 0.999 ± 0.034
- AACTGTGTAC — higher, 1.056 ± 0.0085
- AACTGTGTTT — within error, 0.983 ± 0.04
- AACTGTTCTT — the same, 1.01 ± 0.011
- AACTGTTTGC — within error, 0.983 ± 0.04
- AACTTGGCAT — within error, 1.02 ± 0.011
- AACTTGGTGG — lower, 0.944 ± 0.033
- AACTTGTCAT — within error, 1 ± 0.0063
- AACTTTATCC — higher, 1.09 ± 0.042
- AACTTTATTT — within error, 0.992 ± 0.018
- AAGAAGAACA — within error, 1.02 ± 0.02
- AAGAAGGAAC — within error, 1 ± 0.02
- AAGAAGGATG — within error, 0.982 ± 0.049
- AAGAAGGGAG — within error, 0.982 ± 0.01
- AAGAAGGTTG — within error, 0.9847 ± 0.0061
- AAGAAGTTGC — within error, 0.9861 ± 0.0034
- AAGAAGTTTT — within error, 1 ± 0.035
- AAGACCGGGG — within error, 1.0215 ± 0.00047
- AAGACTCACG — within error, 1.05 ± 0.052
- AAGACTGTGC — the same, 1.01 ± 0.022
- AAGAGAGTAT — within error, 0.992 ± 0.0083
- AAGAGGGGAA — within error, 0.988 ± 0.062
- AAGAGGGTTC — within error, 1.02 ± 0.081
- AAGAGGTAGT — within error, 1.02 ± 0.015
- AAGAGGTATA — the same, 1.01 ± 0.032
- AAGAGGTTTG — lower, 0.949 ± 0.013
- AAGAGTTCTT — the same, 1.01 ± 0.03
- AAGATAGGGA — within error, 0.9792 ± 0.0035
- AAGATAGGGG — within error, 1 ± 0.023
- AAGATATAGA — the same, 1.014 ± 0.0027
- AAGATATAT — within error, 0.984 ± 0.035
- AAGATATTCT — within error, 1.027 ± 0.0091
- AAGATGGCAG — within error, 0.986 ± 0.029
- AAGATGTATG — within error, 0.99 ± 0.02
- AAGATGTTAG — within error, 0.9926 ± 0.0062
- AAGATGTTTG — within error, 0.975 ± 0.021
- AAGATTCTCG — within error, 1.004 ± 0.0095
- AAGATTTTGG — within error, 0.979 ± 0.015
- AAGCAAATCT — higher, 1.18 ± 0.04
- AAGCAACAGT — higher, 1.094 ± 0.0035
- AAGCAGCCCT — within error, 1.02 ± 0.015
- AAGCAGGGAT — within error, 0.999 ± 0.033
- AAGCATAGGT — within error, 0.995 ± 0.018
- AAGCCAAGTA — within error, 1 ± 0.023
- AAGCCAGGCC — within error, 1.03 ± 0.025
- AAGCCCCTTG — within error, 0.992 ± 0.034
- AAGCCGTCGG — within error, 1.02 ± 0.013
- AAGCCTAATG — within error, 0.996 ± 0.017
- AAGCCTATTG — lower, 0.961 ± 0.017
- AAGCCTGGAG — within error, 1.02 ± 0.026
- AAGCCTGGTG — higher, 1.6 ± 0.063
- AAGCCTTGGG — within error, 1.02 ± 0.022
- AAGCCTTTGC — higher, 1.052 ± 0.0041
- AAGCGCCTTT — within error, 0.985 ± 0.02
- AAGCGCTGTT — within error, 1.003 ± 0.0073
- AAGCGGACGG — lower, 0.9536 ± 0.0046
- AAGCGGCGTA — the same, 1.01 ± 0.042
- AAGCGGCTTC — within error, 0.988 ± 0.013
- AAGCGGTAGG — within error, 1.03 ± 0.015
- AAGCGGTGAG — within error, 0.989 ± 0.031
- AAGCTAGTAA — lower, 0.865 ± 0.012
- AAGCTGGCGG — within error, 0.9911 ± 0.0096
- AAGCTTGAAG — the same, 1.01 ± 0.013
- AAGGAAGAAA — within error, 0.974 ± 0.068
- AAGGAAGACT — within error, 0.974 ± 0.021
- AAGGAAGGAG — within error, 1.03 ± 0.038
- AAGGAATAGC — within error, 1.044 ± 0.002
- AAGGAGGGAG — within error, 0.992 ± 0.026
- AAGGAGGTTG — within error, 0.999 ± 0.053
- AAGGAGTATT — the same, 1.01 ± 0.026
- AAGGAGTTGG — within error, 0.989 ± 0.025
- AAGGATGGGA — within error, 1 ± 0.023
- AAGGATGTGT — within error, 0.98 ± 0.012
- AAGGATTATA — within error, 0.985 ± 0.061
- AAGGATTCCA — within error, 0.981 ± 0.014
- AAGGCCTTCG — higher, 1.12 ± 0.021
